Experiment [1] concerns the target bRSV F 391-2 sc9 DS-Cav1 Q98C Q361C (bovine RSV, strain 391-2) (UniProt P22167). The experiment can be described thus: Fab binding to purified bRSV F trimer (Octet BLI as in Example 1).
The target in experiment [2] is bRSV F ATue51908 DS-Cav1 (bovine RSV, strain ATue51908) (UniProt P22167). Described as above.
The target of experiment [3] is bRSV F 391-2 DS-Cav1 (bovine RSV, strain 391-2) (UniProt P22167). The description is as above.
Experiment [4] deals with bRSV F ATue51908 sc9-10 DS-Cav1 A149C Y458C (bovine RSV, strain ATue51908 (NP_048055.1)). The experiment is described as above.
The target in experiment [5] is bRSV F RB94 DS-Cav1 (bovine RSV, strain RB94) (UniProt P23728). Described as above.
Experiment [6] deals with bRSV F strain 391-2 sc9-10, DS-Cav1, Q98C-Q361C (bovine RSV, strain 391-2). The description is as above.
Experiment [7] has as its target sc8 DS-Cav1. The experiment can be described thus: BLI (Octet), F on Ni-NTA tips, Fab in solution.
Experiment [8] concerns the target sc9-10 DS-Cav1 A149C, Y458C S46G-E92D-S215P-K465Q (A2). Description: BLI (Octet), F on Ni-NTA tips, Fab in solution.
Experiment [9] deals with RSV F sc9-10 DS-Cav1 (human RSV subtype A (strain A2)). The experiment can be described thus: BLI (Octet), F on Ni-NTA tips, Fab in solution. In general terms: BLI is a label-free optical method that tracks binding on a fibre tip over time.
Experiment [10] concerns the target RSV F sc9 DS-Cav1 (human RSV subtype A (strain A2)). Description: BLI (Octet), F on Ni-NTA tips, Fab in solution.
Experiment [11] deals with sc9-10 DS-Cav1 N183GC,N428C. Description: BLI (Octet), F on Ni-NTA tips, Fab in solution.
Experiment [12] addresses sc9-10 A DS-Cav1 A149C, Y458C. Description: BLI (Octet), F on Ni-NTA tips, Fab in solution.
The target of experiment [13] is RSV F sc9-9 DS-Cav1 (human RSV subtype A (strain A2)) (UniProt P03420). The experiment can be described thus: BLI (Octet), F on Ni-NTA tips, Fab in solution.
Experiment [14] has as its target sc9-10 DS-Cav1 A149C, Y458C S46G-S215P-K465Q (A2). Description: BLI (Octet), F on Ni-NTA tips, Fab in solution.
In experiment [15] the target is sc9 DS-Cav1-105Q. The experiment can be described thus: BLI (Octet), F on Ni-NTA tips, Fab in solution.
Experiment [16] addresses sc9-19 DS-Cav1. Description: BLI (Octet), F on Ni-NTA tips, Fab in solution.
Experiment [17] addresses sc9-10 DS-Cav1 A149C, Y458C S46G-N67I-E92D-S215P-K465Q (A2). Description: BLI (Octet), F on Ni-NTA tips, Fab in solution.
For experiment [18], the target named is sc9-10 DS-Cav1 Q98C, Q361C S46G-E92D-L95M-S215P-I217P-I221M-R429K-K465Q (Long (VR26)). The experiment can be described thus: BLI (Octet), F on Ni-NTA tips, Fab in solution.
Experiment [19] addresses sc9-24 DS-Cav1. Description: BLI (Octet), F on Ni-NTA tips, Fab in solution.
Experiment [20] addresses RSV F DS-Cav1 (human RSV subtype A (strain A2)) (UniProt P03420). The experiment can be described thus: BLI (Octet), F on Ni-NTA tips, Fab in solution.
For experiment [21], the target named is sc9-10 DS-Cav1 Q98C, Q361C L95M-I221M-R429K (B18537). The experiment can be described thus: BLI (Octet), F on Ni-NTA tips, Fab in solution.
Experiment [22] concerns the target sc9-10 DS-Cav1 N183GC, N428C S46G-N67I-E92D-S215P-K465Q (A2). The experiment can be described thus: BLI (Octet), F on Ni-NTA tips, Fab in solution.
Experiment [23] concerns the target sc11 DS-Cav1. Description: BLI (Octet), F on Ni-NTA tips, Fab in solution.
The target in experiment [24] is sc10 DS-Cav1. The experiment can be described thus: BLI (Octet), F on Ni-NTA tips, Fab in solution.

As usually defined, the Kd is the equilibrium constant for the complex coming apart.

AM14 Fab: the dissociation constant (Kd) in experiment [1] was 8.6 nM; in experiment [2] it was 4.8 nM; in [3], 1.8 nM; in experiment [4], 12.8 nM; in experiment [5], 4.9 nM; in [6] it was 12.8 nM. In addition, the dissociation constant Kd in experiment [7] came out at 1330 nM; in [8], 15.9 nM; in experiment [9], 6.6 nM; in [10], 33.1 nM; in [11], 787 nM; in [12], 6.3 nM. Besides, the Kd in [13] was determined as 3.3 nM; in experiment [14], 35.1 nM; in experiment [15] it was 46.2 nM; in experiment [16], 25.6 nM; in experiment [17] it was 1 nM; in experiment [18], 33.9 nM. Besides, the Kd in experiment [19] came out at 25.1 nM; in experiment [20] it was 3.3 nM; in [21], 18.5 nM; in experiment [22] it was 2210 nM.

For MPE8 Fab, the Kd was 0.4 nM in experiment [1]; 0.2 nM in experiment [2]; 0.2 nM in experiment [3]; 0.5 nM in experiment [4]; 0.2 nM in experiment [5]; 0.8 nM in [6]. In addition, the Kd in experiment [7] is 0.5 nM; in [23], 1.6 nM; in experiment [8], 0.2 nM; in experiment [9], 0.8 nM; in experiment [10], 0.8 nM; in experiment [11], 0.1 nM. The Kd in experiment [12] is 0.1 nM; in experiment [13], less than 0.01 nM; in experiment [14], 0.4 nM; in experiment [15] it was 0.8 nM; in [16], 1 nM; in experiment [17], 0.2 nM. In addition, the Kd was found to be 0.2 nM in experiment [18]; 0.8 nM in experiment [19]; 0.8 nM in experiment [24]; 0.5 nM in [20]; 0.2 nM in experiment [21]; 0.2 nM in experiment [22].

The values above are taken from patent US20190112340A1.
